Laboratory results published in patent US20240392004A1 (IMMUNOWAKE, published 2024).

Tests used:
Experiment in all cases: cell-based or functional assay
[1] = target: T1, human TIGIT on HEK-Blue reporter cells (human, UniProt Q495A1 22-244)
T1 sequence (looked up): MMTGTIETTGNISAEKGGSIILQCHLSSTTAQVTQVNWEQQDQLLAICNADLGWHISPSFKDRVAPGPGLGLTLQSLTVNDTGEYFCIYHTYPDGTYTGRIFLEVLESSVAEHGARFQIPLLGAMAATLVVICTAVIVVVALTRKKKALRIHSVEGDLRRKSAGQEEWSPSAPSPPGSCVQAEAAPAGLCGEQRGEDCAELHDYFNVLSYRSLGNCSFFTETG

[2] = target: human IL-12 receptor complex (IL-12Rβ1 and IL-12Rβ2) (human, UniProt P42701 24-662; Q99665 24-862)
[3] = target: T2, human IL-2 receptor (IL-2Rα, IL-2Rβ, IL-2Rγ) (human, UniProt P01589 22-272; P14784 27-551; P31785 23-369)
T2 sequence (looked up) 1: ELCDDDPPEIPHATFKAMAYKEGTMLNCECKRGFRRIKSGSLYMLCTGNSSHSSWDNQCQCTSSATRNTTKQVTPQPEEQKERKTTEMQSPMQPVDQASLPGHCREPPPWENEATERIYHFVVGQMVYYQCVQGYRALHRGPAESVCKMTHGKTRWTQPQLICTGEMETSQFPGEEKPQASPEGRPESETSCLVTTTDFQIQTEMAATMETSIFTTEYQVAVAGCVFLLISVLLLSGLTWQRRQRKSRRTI
T2 sequence (looked up) 2: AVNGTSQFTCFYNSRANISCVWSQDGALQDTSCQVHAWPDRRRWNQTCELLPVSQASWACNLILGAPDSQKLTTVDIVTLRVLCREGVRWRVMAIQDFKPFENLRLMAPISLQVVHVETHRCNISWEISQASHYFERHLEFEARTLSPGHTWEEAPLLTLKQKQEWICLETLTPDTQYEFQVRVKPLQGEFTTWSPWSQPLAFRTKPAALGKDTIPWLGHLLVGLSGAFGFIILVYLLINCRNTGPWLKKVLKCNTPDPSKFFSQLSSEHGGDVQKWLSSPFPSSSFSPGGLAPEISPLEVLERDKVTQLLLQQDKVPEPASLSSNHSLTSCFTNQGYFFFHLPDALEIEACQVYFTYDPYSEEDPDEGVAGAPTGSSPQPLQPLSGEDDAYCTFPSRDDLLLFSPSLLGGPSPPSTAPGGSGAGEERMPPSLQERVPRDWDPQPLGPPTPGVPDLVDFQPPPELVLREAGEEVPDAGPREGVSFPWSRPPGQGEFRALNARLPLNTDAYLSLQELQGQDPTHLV
T2 sequence (looked up) 3: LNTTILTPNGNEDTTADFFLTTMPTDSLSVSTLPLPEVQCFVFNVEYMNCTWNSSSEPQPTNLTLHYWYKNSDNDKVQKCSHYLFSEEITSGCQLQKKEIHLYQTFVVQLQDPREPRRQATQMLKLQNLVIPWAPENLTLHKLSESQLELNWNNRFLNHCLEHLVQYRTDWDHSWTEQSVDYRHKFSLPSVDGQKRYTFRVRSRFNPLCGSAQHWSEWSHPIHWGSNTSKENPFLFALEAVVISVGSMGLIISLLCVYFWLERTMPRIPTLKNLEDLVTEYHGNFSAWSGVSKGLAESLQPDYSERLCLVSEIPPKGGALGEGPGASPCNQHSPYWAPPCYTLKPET

Chain of human IL-12 receptor complex (IL-12Rβ1 and IL-12Rβ2) (Q99665 24-862, chain 2 of 2, other chains not shown): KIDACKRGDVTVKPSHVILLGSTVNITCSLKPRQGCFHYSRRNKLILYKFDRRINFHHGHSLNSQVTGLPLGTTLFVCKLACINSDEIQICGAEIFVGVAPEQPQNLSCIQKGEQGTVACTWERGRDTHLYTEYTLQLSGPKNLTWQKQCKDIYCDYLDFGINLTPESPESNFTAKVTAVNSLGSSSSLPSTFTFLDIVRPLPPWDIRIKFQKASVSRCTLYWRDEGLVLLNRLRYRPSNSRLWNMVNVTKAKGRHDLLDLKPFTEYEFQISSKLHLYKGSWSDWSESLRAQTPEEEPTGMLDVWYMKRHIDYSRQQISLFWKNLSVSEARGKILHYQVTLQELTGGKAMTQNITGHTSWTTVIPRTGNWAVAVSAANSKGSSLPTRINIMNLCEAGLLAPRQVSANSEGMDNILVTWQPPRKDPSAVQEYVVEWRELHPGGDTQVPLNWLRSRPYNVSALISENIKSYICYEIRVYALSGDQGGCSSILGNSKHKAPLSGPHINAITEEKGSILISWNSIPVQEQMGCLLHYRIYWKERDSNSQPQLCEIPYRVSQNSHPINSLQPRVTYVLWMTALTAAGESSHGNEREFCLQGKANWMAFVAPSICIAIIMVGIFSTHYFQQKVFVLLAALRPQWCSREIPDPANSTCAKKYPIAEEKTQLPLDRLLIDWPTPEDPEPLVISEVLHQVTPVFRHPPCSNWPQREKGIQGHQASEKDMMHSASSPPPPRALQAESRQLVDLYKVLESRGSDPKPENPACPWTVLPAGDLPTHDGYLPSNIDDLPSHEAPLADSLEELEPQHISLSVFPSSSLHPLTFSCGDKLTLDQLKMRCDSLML

Binder | IL-2 signal transduction, HEK-IL-2-TIGIT [1] [%] | IL-12 signal transduction, HEK-IL-12-TIGIT [1] [%] | IL-12 signal transduction, HEK-IL-12 [2] [%] | IL-2 signal transduction, HEK-IL-2 [3] [%]
IL-12(E59A/F60A)/IL-2(L18R/Q22E/R38D/K43E/E61R/Q126T/S130R)/CD155-Fc (Fc fusion) chain 1: WPPPGTGDVVVQAPTQVPGFLGDSVTLPCYLQVPNMEVTHVSQLTWARHGESGSMAVFHQTQGPSYSESKRLEFVAARLGAELRNASLRMFGLRVEDEGNYTCLFVTFPQGSRSVDIWLRVLAKPQNTAEVQKVQLTGEPVPMARCVSTGGRPPAQITWHSDLGGMPNTSQVPGFLSGTVTVTSLWILVPSSQVDGKNVTCKVEHESFEKPQLLTVNLTVYYPPEVSISGYDNNWYLGQNEATLTCDARSNPEPTGYNWSTTMGPLPPFAVAQGAQLLIRPVDKPINTTLICNVTNALGARQAELTVQVKEGPPSEHSGISRNGGGGSGGGIWELKKDVYVVELDWYPDAPGEMVVLTCDTPEEDGITWTLDQSSEVLGSGKTLTIQVKAAGDAGQYTCHKGGEVLSHSLLLLHKKEDGIWSTDILKDQKEPKNKTFLRCEAKNYSGRFTCWWLTTISTDLTFSVKSSRGSSDPQGVTCGAATLSAERVRGDNKEYEYSVECQEDSACPAAEESLPIEVMVDAVHKLKYENYTSSFFIRDIIKPDPPKNLQLKPLKNSRQVEVSWEYPDTWSTPHSYFSLTFCVQVQGKSKREKKDRVFTDKTSATVICRKNASISVRAQDRYYSSSWSEWASVPCSGGGGSGGGSGGGGSRNLPVATPDPGMFPCLHHSQNLLRAVSNMLQKARQTLEFYPCTSEEIDHEDITKDKTSTVEACLPLELTKNESCLNSRETSFITNGSCLASRKTSFMMALCLSSIYEDLKMYQVEFKTMNAKLLMDPKRQIFLDQNMLAVIDELMQALNFNSETVPQKSSLEEPDFYKTKIKLCILLHAFRIRAVTIDRVMSYLNASGGGGSGGGDKTHTCPPCPAPEDEGGPSVFLFPPKPKDTLMISRTPEVTCVVVDVSHEDPEVKFNWYVDGVEVHNAKTKPREEQYNSTYRVVSVLTVLHQDWLNGKEYKCKVSNKALPAPIEKTISKAKGQPREPQVYVYPPSREEMTKNQVSLTCLVKGFYPSDIAVEWESNGQPENNYKTTPPVLDEDGSFALVSKLTVDKSRWQQGNVFSCSVMHEALHNHYTQKSLSLSPGK chain 2: WPPPGTGDVVVQAPTQVPGFLGDSVTLPCYLQVPNMEVTHVSQLTWARHGESGSMAVFHQTQGPSYSESKRLEFVAARLGAELRNASLRMFGLRVEDEGNYTCLFVTFPQGSRSVDIWLRVLAKPQNTAEVQKVQLTGEPVPMARCVSTGGRPPAQITWHSDLGGMPNTSQVPGFLSGTVTVTSLWILVPSSQVDGKNVTCKVEHESFEKPQLLTVNLTVYYPPEVSISGYDNNWYLGQNEATLTCDARSNPEPTGYNWSTTMGPLPPFAVAQGAQLLIRPVDKPINTTLICNVTNALGARQAELTVQVKEGPPSEHSGISRNGGGSGAPTSSSTKKTQLQLEHLRLDLEMILNGINNYKNPKLTDMLTFEFYMPKKATELKHLQCLERELKPLEEVLNLAQSKNFHLRPRDLISNINVIVLELKGSETTFMCEYADETATIVEFLNRWITFCTSIIRTLTGGGGSGGGDKTHTCPPCPAPEKKGGPSVFLFPPKPKDTLMISRTPEVTCVVVDVSHEDPEVKFNWYVDGVEVHNAKTKPREEQYNSTYRVVSVLTVLHQDWLNGKEYKCKVSNKALPAPIEKTISKAKGQPREPQVYVLPPSREEMTKNQVSLLCLVKGFYPSDIAVEWESNGQPENRYMTWPPVLDSDGSFFLYSKLTVDKSRWQQGNVFSCSVMHEALHNHYTQKSLSLSPGK | < 0.1 | 15 | < 0.2 | < 0.1
CD155-Fc/IL-12(E59A/F60A) (IL-12 at C'), printed in Table 21 as IL-12(E59A/F60A)/CD155-Fc (Fc fusion) chain 1: WPPPGTGDVVVQAPTQVPGFLGDSVTLPCYLQVPNMEVTHVSQLTWARHGESGSMAVFHQTQGPSYSESKRLEFVAARLGAELRNASLRMFGLRVEDEGNYTCLFVTFPQGSRSVDIWLRVLAKPQNTAEVQKVQLTGEPVPMARCVSTGGRPPAQITWHSDLGGMPNTSQVPGFLSGTVTVTSLWILVPSSQVDGKNVTCKVEHESFEKPQLLTVNLTVYYPPEVSISGYDNNWYLGQNEATLTCDARSNPEPTGYNWSTTMGPLPPFAVAQGAQLLIRPVDKPINTTLICNVTNALGARQAELTVQVKEGPPSEHSGISRNGGGGSGGGDKTHTCPPCPAPEDEGGPSVFLFPPKPKDTLMISRTPEVTCVVVDVSHEDPEVKFNWYVDGVEVHNAKTKPREEQYNSTYRVVSVLTVLHQDWLNGKEYKCKVSNKALPAPIEKTISKAKGQPREPQVYVYPPSREEMTKNQVSLTCLVKGFYPSDIAVEWESNGQPENNYKTTPPVLDEDGSFALVSKLTVDKSRWQQGNVFSCSVMHEALHNHYTQKSLSLSPGKGGGGSGGGIWELKKDVYVVELDWYPDAPGEMVVLTCDTPEEDGITWTLDQSSEVLGSGKTLTIQVKAAGDAGQYTCHKGGEVLSHSLLLLHKKEDGIWSTDILKDQKEPKNKTFLRCEAKNYSGRFTCWWLTTISTDLTFSVKSSRGSSDPQGVTCGAATLSAERVRGDNKEYEYSVECQEDSACPAAEESLPIEVMVDAVHKLKYENYTSSFFIRDIIKPDPPKNLQLKPLKNSRQVEVSWEYPDTWSTPHSYFSLTFCVQVQGKSKREKKDRVFTDKTSATVICRKNASISVRAQDRYYSSSWSEWASVPCSGGGGSGGGSGGGGSRNLPVATPDPGMFPCLHHSQNLLRAVSNMLQKARQTLEFYPCTSEEIDHEDITKDKTSTVEACLPLELTKNESCLNSRETSFITNGSCLASRKTSFMMALCLSSIYEDLKMYQVEFKTMNAKLLMDPKRQIFLDQNMLAVIDELMQALNFNSETVPQKSSLEEPDFYKTKIKLCILLHAFRIRAVTIDRVMSYLNAS chain 2: WPPPGTGDVVVQAPTQVPGFLGDSVTLPCYLQVPNMEVTHVSQLTWARHGESGSMAVFHQTQGPSYSESKRLEFVAARLGAELRNASLRMFGLRVEDEGNYTCLFVTFPQGSRSVDIWLRVLAKPQNTAEVQKVQLTGEPVPMARCVSTGGRPPAQITWHSDLGGMPNTSQVPGFLSGTVTVTSLWILVPSSQVDGKNVTCKVEHESFEKPQLLTVNLTVYYPPEVSISGYDNNWYLGQNEATLTCDARSNPEPTGYNWSTTMGPLPPFAVAQGAQLLIRPVDKPINTTLICNVTNALGARQAELTVQVKEGPPSEHSGISRNGGGGSGGGDKTHTCPPCPAPEKKGGPSVFLFPPKPKDTLMISRTPEVTCVVVDVSHEDPEVKFNWYVDGVEVHNAKTKPREEQYNSTYRVVSVLTVLHQDWLNGKEYKCKVSNKALPAPIEKTISKAKGQPREPQVYVLPPSREEMTKNQVSLLCLVKGFYPSDIAVEWESNGQPENRYMTWPPVLDSDGSFFLYSKLTVDKSRWQQGNVFSCSVMHEALHNHYTQKSLSLSPGK | < 0.1 | 35 | 2 | < 0.1
